In paper doi:10.1101/2025.08.27.672771 (bioRxiv, 2025):

Biological target: the molecule itself
Test: SEC

B1: human TRPC3 (hTRPC3) channel, GFP-MBP-tagged (natural protein, UniProt Q13507 86-921, looked up)
chain: MREKGRRQAVRGPAFMFNDRGTSLTAEEERFLDAAEYGNIPVVRKMLEESKTLNVNCVDYMGQNALQLAVGNEHLEVTELLLKKENLARIGDALLLAISKGYVRIVEAILNHPGFAASKRLTLSPCEQELQDDDFYAYDEDGTRFSPDITPIILAAHCQKYEVVHMLLMKGARIERPHDYFCKCGDCMEKQRHDSFSHSRSRINAYKGLASPAYLSLSSEDPVLTALELSNELAKLANIEKEFKNDYRKLSMQCKDFVVGVLDLCRDSEEVEAILNGDLESAEPLEVHRHKASLSRVKLAIKYEVKKFVAHPNCQQQLLTIWYENLSGLREQTIAIKCLVVLVVALGLPFLAIGYWIAPCSRLGKILRSPFMKFVAHAASFIIFLGLLVFNASDRFEGITTLPNITVTDYPKQIFRVKTTQFTWTEMLIMVWVLGMMWSECKELWLEGPREYILQLWNVLDFGMLSIFIAAFTARFLAFLQATKAQQYVDSYVQESDLSEVTLPPEIQYFTYARDKWLPSDPQIISEGLYAIAVVLSFSRIAYILPANESFGPLQISLGRTVKDIFKFMVLFIMVFFAFMIGMFILYSYYLGAKVNAAFTTVEESFKTLFWSIFGLSEVTSVVLKYDHKFIENIGYVLYGIYNVTMVVVLLNMLIAMINSSYQEIEDDSDVEWKFARSKLWLSYFDDGKTLPPPFSLVPSPKSFVYFIMRIVNFPKCRRRRLQKDIEMGMGNSKSRLNLFTQSNSRVFESHSFNSILNQPTRYQQIMKRLIKRYVLKAQVDKENDEVNEGELKEIKQDISSLRYELLEDKSQATEELAILIHKLSEKLNPSMLRCE
  stoichiometry N: 4
